Experimental data as given in PMC4329827 (Meta Gene, 2015).

Molecular target: T1, MOCS2B wild-type, large subunit of MPT synthase (human, UniProt O96007 1-188)
T1 sequence (looked up): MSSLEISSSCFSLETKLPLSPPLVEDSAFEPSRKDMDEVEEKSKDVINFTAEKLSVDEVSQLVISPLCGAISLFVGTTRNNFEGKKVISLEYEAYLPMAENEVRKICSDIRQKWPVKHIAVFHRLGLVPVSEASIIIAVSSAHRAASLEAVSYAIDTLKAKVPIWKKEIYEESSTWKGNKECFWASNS
Test: ITC

Kd: 360 ± 47 nM
B1: MOCS2A, small subunit of MPT synthase (activated, thiocarboxylated) (natural protein, human, UniProt O96033 1-88, looked up)
chain: MVPLCQVEVLYFAKSAEITGVRSETISVPQEIKALQLWKEIETRHPGLADVRNQIIFAVRQEYVELGDQLLVLQPGDEIAVIPPISGG
modifications: thiocarboxylated C-terminal tail
